# ± gives the uncertainty stated by the source.
# Test: amyloid nucleation score (Sup35N fusion, yeast selection) (log enrichment); library NNK2; higher = more nucleation; inactive = no reads after selection
# Procedure, shortened: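 Peptides of 20 random codons fused to Sup35N were expressed in psi-negative yeast, induced 24 hours with 100 μM copper sulfate, then grown 7 days at 30°C on medium lacking adenine and uracil. Input and output plasmid inserts were Illumina-sequenced. Nucleation score is the DiMSum log enrichment of output over input reads, centred on the mode score of non-aggregating sequences, excluding sequences with under 100 input reads. Random libraries had three technical output replicates.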
row,Substance,amyloid nucleation score
1,TASPSILTSKVTRYNLTVGC,-0.072 ± 0.5
2,WTGGFSLQSVHCNQN,-0.393 ± 1.1
3,FASCRIVSRG,inactive
4,ECFTMSRK,-1.28 ± 0.37
5,TVCFDSLNHITSFIRGRFSL,inactive
6,ISYVCGPFICVLNLFYQI,6.04 ± 0.066
7,GGMDNQCHLVRCGRRSLAPV,1.65 ± 0.4
8,FMTLAGFSGAVEASGADWRR,-0.606 ± 0.63
9,VLGVLR,inactive
10,LSGLVFIN,-0.053 ± 1
11,PALQCLSHRAIA,0.222 ± 0.62
12,RLSSYILAIYSNRAKYF,0.412 ± 0.5
13,IQPPQFFAFI,inactive
14,DRCMFNYVIEVHVYSCVRFW,4.67 ± 0.079
15,WTRAVKPPV,-0.113 ± 0.34
16,IVGVSFKSVNTNRIDPVFLF,inactive
17,HKEEV,0.163 ± 0.53
18,IDLNLYERFDFQFTVSVPSV,inactive
19,GLFGGIHFVANLGTPPCLDE,1.56 ± 0.31
20,VARVWEWFCVCWTWDSELVG,3.69 ± 0.057
21,KAVVMLI,-1.09 ± 0.31
22,FNSSLWVFRIPNCCNRSAYC,inactive

row,Substance,amyloid nucleation score
1,FFCLIVLVANVTCCGRDEGP,5.32 ± 0.055
2,RGMVE,0.587 ± 0.53
3,SLMFKRRK,0.317 ± 0.28
4,LNISYSAH,0.264 ± 0.65
5,YSVEYFCHMFSLTCFNKF,7.388 ± 0.057
6,DLITLMKSAIPQPNMRLNSL,0.105 ± 0.57
7,SWSRYGCGVYSDVGVTLLQF,0.201 ± 0.63
8,GKLRLLWKGITCVRAFANKL,-0.976 ± 0.34
9,FSYFVFLVKFVTVFTPTIHV,-1.12 ± 0.3
10,GDKYICELHWRFLGQNSVW,4.07 ± 0.11
11,WYYGLTPSQACGGEIPCDFQ,6.523 ± 0.056
12,FRFPFFVQWFFCLSGSQRAR,inactive
13,NYSRL,-0.099 ± 0.26
14,NILAMKLFVNKFHVIFDEFL,0.097 ± 1.1
15,KEFYGKRIFRCLYDVLVVLF,-1.25 ± 0.54
16,FMRWSRISRSGYNDDGSLVG,3.52 ± 0.067
17,GYRFEAPWYNGLTVYGRIFC,-1.1 ± 0.55
18,VFNLL,inactive
19,RYYDLTNVVRPHYPCAHGDV,7.333 ± 0.054
20,PGSVTGMLWSGTFEVRYLGL,0.101 ± 0.26
21,CVGGGRQKCEHNVMITLMTF,4.22 ± 0.056
22,ASMDSSVPRAGDAGRSDMSS,2.26 ± 0.14

row,Substance,amyloid nucleation score
1,MKTGLGVFRSFDLVVYNRR,inactive
2,KGMNCVCACAINRPYSIVLQ,1.41 ± 0.15
3,KCGSSVVYFIVYQRKLKWGW,0.961 ± 0.81
4,CDVGFSHRYSSNYDKTWDMI,-0.7 ± 0.78
5,RMSVWNNECTWTSSVSVHPK,2.37 ± 0.1
6,VHTARLTWDLGYSVRCYYWT,6.47 ± 0.074
7,WHQVRPARV,1.17 ± 0.3
8,SRHVLSKRFRWYT,0.196 ± 0.26
9,MWQSMLSAVGSVNVMSQLGT,1.53 ± 0.33
10,SFVAAEQIMASIEW,0.706 ± 0.29
11,SKMVDLVVNPQVYCLRRVFW,2.9 ± 0.078
12,PSNLKFKYSCFLLNKCMGVR,0.153 ± 0.43
13,DSVVLGGYGGFAAHKTRVIF,0.213 ± 0.43
14,EESGGYC,-0.893 ± 0.25
15,MTMGEKTLCPWNHSDLAPSR,0.966 ± 0.49
16,EELKYYSISVMLRGRHALLI,-0.894 ± 0.56
17,LGSWR,-0.829 ± 1.1
18,FTSSYKSAVRTLIFVLSESG,0.331 ± 0.36
19,VLPLFNGIARHPCWNLCMPM,-1.27 ± 0.62
20,QYYELWSFTDWVWDLWGVQS,-0.568 ± 0.63
21,GHCLSYMCVGLA,4.304 ± 0.039
22,RHICIFMNRMSYMDLWPALL,inactive

row,Substance,amyloid nucleation score
1,SCSDMIKYHHTVELSLVSAT,0.295 ± 1
2,NVLQLDPFFAYSVRCILGSE,inactive
3,LLKVF,-1.01 ± 1.1
4,CVGNNMCSGKNF,inactive
5,RFKSNNRPCWHCHPLLGFRT,1.06 ± 0.43
6,GNYPPTFACNSN,inactive
7,AFLSLFNSYWYFVFAKLF,-0.558 ± 0.74
8,YLNGSSTTVSYRCWAMACSN,-0.448 ± 0.76
9,EFDDYSFICRILSALFES,-0.153 ± 1.1
10,DLRHASVVVNRWILCLLGHI,0.106 ± 1
11,VTVTYLWIC,1.88 ± 0.28
12,CFDPGTNRCLPWAVGVGELG,0.959 ± 0.74
13,PYLFMESMKD,0.117 ± 0.79
14,MVHTKYPLWSNSRVLWDSVT,0.397 ± 0.64
15,AEADGYLFSALHTPYWTSGV,0.294 ± 0.64
16,TPDVLGLRHYRLTIVTYH,1.22 ± 0.31
17,LDRGVVSLRLLFARAHNYSK,2.88 ± 0.15
18,QHFDLVATGMGYSWAMLYFA,0.776 ± 0.43
19,VYMSQWSKVFALFALNFKVN,1.84 ± 0.2
20,VCCAFLCASRAVVYTGKDMH,10.18 ± 0.027
